Test results: article PMC5571166, “Mapping the key residues of SufB and SufD essential for biosynthesis of iron-sulfur clusters” (Scientific Reports, 2017)

Experiments:
Assay in all cases: SEC; SufBCD complexes co-expressed in E. coli and co-purified on Phenyl FF, Q XL and Sephacryl S-200; eluted from gel filtration at about 160 kDa; subunit composition checked by SDS-PAGE of the purified sample
Settings in all cases: both partners purified
[1] = molecular target: T1, SufB^W287A (Escherichia coli, UniProt P77522 1-495, SufB^W287A)
T1 construct: SufB of the Escherichia coli sufABCDSE operon; source: pBBR-sufAB carrying the mutation, in bacterial extract
T1 sequence: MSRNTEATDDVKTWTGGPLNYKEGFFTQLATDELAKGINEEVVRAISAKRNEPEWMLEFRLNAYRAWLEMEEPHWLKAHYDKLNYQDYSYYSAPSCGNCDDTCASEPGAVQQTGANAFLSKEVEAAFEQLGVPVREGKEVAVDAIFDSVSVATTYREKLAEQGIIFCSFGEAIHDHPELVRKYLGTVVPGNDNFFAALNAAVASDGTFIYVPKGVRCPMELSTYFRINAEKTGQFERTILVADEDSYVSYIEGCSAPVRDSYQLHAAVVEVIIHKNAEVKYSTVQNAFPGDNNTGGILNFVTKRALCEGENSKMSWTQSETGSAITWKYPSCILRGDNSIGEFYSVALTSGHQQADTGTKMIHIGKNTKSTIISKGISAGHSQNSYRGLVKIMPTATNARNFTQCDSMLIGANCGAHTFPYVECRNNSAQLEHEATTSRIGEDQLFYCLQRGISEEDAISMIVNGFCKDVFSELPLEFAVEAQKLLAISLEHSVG

[2] = molecular target: T2, SufB^Q285A (Escherichia coli, UniProt P77522 1-495, SufB^Q285A)
T2 construct: SufB of the Escherichia coli sufABCDSE operon; source: pBBR-sufAB carrying the mutation, in bacterial extract
T2 sequence: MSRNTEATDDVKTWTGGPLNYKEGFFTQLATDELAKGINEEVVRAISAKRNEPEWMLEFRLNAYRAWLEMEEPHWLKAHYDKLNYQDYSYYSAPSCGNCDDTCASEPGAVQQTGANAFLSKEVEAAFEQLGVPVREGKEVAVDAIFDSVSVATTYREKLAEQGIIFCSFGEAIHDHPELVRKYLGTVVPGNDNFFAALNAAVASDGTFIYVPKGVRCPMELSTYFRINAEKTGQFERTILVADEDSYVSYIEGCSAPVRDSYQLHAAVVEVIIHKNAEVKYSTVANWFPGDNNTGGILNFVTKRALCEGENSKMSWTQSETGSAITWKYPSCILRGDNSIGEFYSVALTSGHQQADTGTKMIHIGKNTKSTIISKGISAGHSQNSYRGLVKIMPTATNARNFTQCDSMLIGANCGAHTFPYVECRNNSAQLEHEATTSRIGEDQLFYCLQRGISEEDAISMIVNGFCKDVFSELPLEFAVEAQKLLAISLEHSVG

[3] = molecular target: T3, SufB^K303A (Escherichia coli, UniProt P77522 1-495, SufB^K303A)
T3 construct: SufB of the Escherichia coli sufABCDSE operon
T3 sequence: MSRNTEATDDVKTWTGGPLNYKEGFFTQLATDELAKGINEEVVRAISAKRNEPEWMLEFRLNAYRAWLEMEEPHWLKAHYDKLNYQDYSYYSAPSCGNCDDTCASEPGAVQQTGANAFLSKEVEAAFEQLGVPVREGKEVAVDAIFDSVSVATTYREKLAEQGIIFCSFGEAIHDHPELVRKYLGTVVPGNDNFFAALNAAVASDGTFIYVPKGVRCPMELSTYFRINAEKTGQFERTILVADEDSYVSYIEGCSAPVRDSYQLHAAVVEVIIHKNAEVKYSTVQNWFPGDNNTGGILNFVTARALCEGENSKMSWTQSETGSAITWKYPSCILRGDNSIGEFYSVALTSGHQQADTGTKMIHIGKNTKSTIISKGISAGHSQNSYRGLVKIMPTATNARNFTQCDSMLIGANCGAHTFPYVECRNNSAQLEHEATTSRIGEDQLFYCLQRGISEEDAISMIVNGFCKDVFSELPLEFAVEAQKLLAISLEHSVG

[4] = molecular target: T4, SufB^E434A (Escherichia coli, UniProt P77522 1-495, SufB^E434A)
T4 construct: SufB of the Escherichia coli sufABCDSE operon
T4 sequence: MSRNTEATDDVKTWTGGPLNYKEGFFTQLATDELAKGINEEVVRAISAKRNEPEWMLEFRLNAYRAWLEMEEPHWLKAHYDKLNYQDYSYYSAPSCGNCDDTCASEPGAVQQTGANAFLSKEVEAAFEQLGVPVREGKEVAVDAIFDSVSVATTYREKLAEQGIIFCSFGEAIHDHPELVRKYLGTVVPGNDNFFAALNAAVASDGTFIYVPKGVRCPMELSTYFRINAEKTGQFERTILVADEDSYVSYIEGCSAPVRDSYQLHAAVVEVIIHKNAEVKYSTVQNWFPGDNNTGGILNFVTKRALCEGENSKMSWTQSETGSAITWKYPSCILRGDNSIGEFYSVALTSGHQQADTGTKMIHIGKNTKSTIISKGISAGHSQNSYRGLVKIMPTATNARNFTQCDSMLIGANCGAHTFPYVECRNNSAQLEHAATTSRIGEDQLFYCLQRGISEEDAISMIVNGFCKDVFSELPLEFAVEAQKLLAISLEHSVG

Measured: binding result

B1: SufC (natural protein, Escherichia coli)
chain: MLSIKDLHVSVEDKAILRGLSLDVHPGEVHAIMGPNGSGKSTLSATLAGREDYEVTGGTVEFKGKDLLALSPEDRAGEGIFMAFQYPVEIPGVSNQFFLQTALNAVRSYRGQETLDRFDFQDLMEEKIALLKMPEDLLTRSVNVGFSGGEKKRNDILQMAVLEPELCILDESDSGLDIDALKVVADGVNSLRDGKRSFIIVTHYQRILDYIKPDYVHVLYQGRIVKSGDFTLVKQLEEQGYGWLTEQQ
notes: SufC of the Escherichia coli sufABCDSE operon; also called SufC subunit of the SufBCD complex
binds: all assays above

B2: SufD (natural protein, Escherichia coli)
chain: MAGLPNSSNALQQWHHLFEAEGTKRSPQAQQHLQQLLRTGLPTRKHENWKYTPLEGLINSQFVSIAGEISPQQRDALALTLDSVRLVFVDGRYVPALSDATEGSGYEVSINDDRQGLPDAIQAEVFLHLTESLAQSVTHIAVKRGQRPAKPLLLMHITQGVAGEEVNTAHYRHHLDLAEGAEATVIEHFVSLNDARHFTGARFTINVAANAHLQHIKLAFENPLSHHFAHNDLLLAEDATAFSHSFLLGGAVLRHNTSTQLNGENSTLRINSLAMPVKNEVCDTRTWLEHNKGFCNSRQLHKTIVSDKGRAVFNGLINVAQHAIKTDGQMTNNNLLMGKLAEVDTKPQLEIYADDVKCSHGATVGRIDDEQIFYLRSRGINQQDAQQMIIYAFAAELTEALRDEGLKQQVLARIGQRLPGGAR
notes: SufD of the Escherichia coli sufABCDSE operon; One SufD per SufBCD complex (1:2:1); also called SufD subunit of the SufBCD complex
binds: all assays above
